B1: TGFβ type II receptor extracellular domain (sRII) (receptor)
chain: MIPPHVQKSVNNDMIVTDNNGAVKFPQLCKFCDVRFSTCDNQKSCMSNCSITSICEKPQEVCVAVWRKNDENITLETVCHDPKLPYHDFILEDAASPKCIMKEKKKPGETFFMCSCSSDECNDNIIFSEEYNTSNPD
notes: also called recombinant sRII; extracellular domain of RII
B2: TGFβ2 (ligand)
chain: ALDAAYCFRNVQDNCCLRPLYIDFKRDLGWKWIHEPKGYNANFCAGACPYLWSSDTQHSRVLSLYNTINPEASASPCCVSQDLEPLTILYYIGKTPKIEQLSNMIVKSCKCS
notes: also called TGFβ2 homodimer; transforming growth factor beta 2

For experiment [1], the target named is T1, E-domain of betaglycan (BGe) (Rattus norvegicus, UniProt P26342 24-409).
T1 construct: also called sRIIIe; sBGe
T1 sequence: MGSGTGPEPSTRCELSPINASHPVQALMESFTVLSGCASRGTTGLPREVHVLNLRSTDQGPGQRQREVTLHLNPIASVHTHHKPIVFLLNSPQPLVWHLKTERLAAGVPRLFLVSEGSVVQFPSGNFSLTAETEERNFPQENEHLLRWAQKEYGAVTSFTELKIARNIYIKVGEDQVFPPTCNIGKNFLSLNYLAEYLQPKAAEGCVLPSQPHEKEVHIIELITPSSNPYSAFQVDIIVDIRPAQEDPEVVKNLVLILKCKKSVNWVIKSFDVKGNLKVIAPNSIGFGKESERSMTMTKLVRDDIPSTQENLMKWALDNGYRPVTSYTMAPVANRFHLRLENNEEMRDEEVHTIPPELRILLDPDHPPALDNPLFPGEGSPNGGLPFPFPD
Briefly: electrophoretic mobility shift, 12% native polyacrylamide gel pH 8.8, Coomassie staining. The source says:
(§1) Referring now to FIG. 1, binding of the E-domain of betaglycan (BGe) and the TGFβ type II receptor extracellular domain (sRII) to TGFβ2. A. Electrophoretic mobility shift assay in which an increasing amount of sRII has been added to a fixed amount of TGFβ2 and then applied to 12% native polyacryamide gel at pH 8.8. The relative molar amounts of TGFβ2 and sRII used in the assay are indicated above the gel. The protein bands were visualized by Coomassie blue staining. B. Electrophoretic mobility shift assay in which an increasing amount of BGe has been added to a fixed amount of TGFβ2 and then applied to 12% native polyacryamide gel at pH 8.8. The relative molar amounts of TGFβ2 and BGe (sRIIIe) used in the assay are indicated above the gel. The protein bands were visualized by Coomassie blue staining. The arrow labeled BC designates the binary complex formed between TGFβ2 and BGe. C. […] Purified TGFβ2 and BGe have also been applied to the SDS gel as controls. Relative molar amounts are indicated above the gel. The protein bands were visualized by Coomassie blue staining. On the basis of the relative amounts of TGFβ2 and BGe (sRIIIe) in the binary complex, together with the relative band intensities for the TGFβ2 and BGe (sRIIIe) controls, we tentatively conclude that BGe and the TGFβ2 homodimer bind with 1:1 stochiometry.
(In general: A gel shift assay detects complexes by their altered migration in electrophoresis.)

Experiment [2] addresses B1. Described as above.
Description: as §1

Results on two molecules are retold here after patent publication US20070244042A1 (University of Texas, published 2007).

On to B1, for which the binding result in experiment [1] is reported as “no binding”.
With B2, the binding result in experiment [2] is reported as “no binding”.
